Test results from article PMC11257983 (2024).

B1: Flag-CNK^2–549 [Drosophila] / GST-HYP [Drosophila] (parent complex)
chain 1: AYINIAEWTPDQVTDWIKGLDESMKGYLYEFSKQEIGGRALLNIRPYELENLGMLRIGHQEIVLEAVENLRNFHYHLKNDNLQFMALHVATAAKNLHRELARNHAESTKIDTRILHDITRTIATLKPLVGSLERTPFRKQEMYREYCGNVLKCGLELATIAHRDRFALQPVPAIRQSAERLENLANFVIQDISDPMVLQPASLNLVTLKKRESELGFNIESSYNGIHRVTDIKYNSPAHNSGKIEDGDEIVQINYQTVVGWQHRTVLEHLREALPDVVLTVKKRPKHTKMFGQIYMQPYRLPSKKRNMAARWAAQMPSPRAAFLTLDTEQLATGGTGSAVPDPSKSLSSEKREVLTKANPVSSASDSDSSCSDIPTPTDPKLAAREIRLYYPKPRALLQRRNTICGCEYLSLKNSDLVVPSWHERKPGIGSPTNCDPGSPSIRDKSISFGYGLEMAARPTTCIGIAGDTSTDKARRMFHEARKLKQLTEDSQREFLVDRYKPGVSKVVRFDAKEDYVMKNEKFICNVENTILETFEPIPFADEGDEDA
chain 2: MGEETINSTQNKTRTKTTRPKAVYLWTVSDVLKWYRRHCGEYTQYEQLFAQHDITGRALLRITDSSLQRMGVTDNRDREAIWREIVKQRLKTDIMEIRDMERLNIY

Variants of: B1
Test: GST pull-down, immunoblot quantification; S2 cells; GST-HYP + RRKM co-expressed; anti-Flag (CNK) blot; parent: 1

Variant | ratio to parent
chain 1 AYINIAEWTPDQVTDWIKGLDESMKGYLYEFSKQEIGGRALLNIRPYELENLGMLRIGHQEIVLEAVENLRNFHYHLKNDNLQFMALHVATAAKNLHRELARNHAESTKIDTRILHDITRTIATLKPLVGSLERTPFRKQEMYREYCGNVLKCGLELATIAHRDRFALQPVPAIRQSAERLENLANFVIQDISDPMVLQPASLNLVTLKKRESELGFNIESSYNGIHRVTDIKYNSPAHNSGKIEDGDEIVQINYQTVVGWQHRTVLEHLREALPDVVLTVDKRPKHTKMFGQIYMQPYRLPSKKRNMAARWAAQMPSPRAAFLTLDTEQLATGGTGSAVPDPSKSLSSEKREVLTKANPVSSASDSDSSCSDIPTPTDPKLAAREIRLYYPKPRALLQRRNTICGCEYLSLKNSDLVVPSWHERKPGIGSPTNCDPGSPSIRDKSISFGYGLEMAARPTTCIGIAGDTSTDKARRMFHEARKLKQLTEDSQREFLVDRYKPGVSKVVRFDAKEDYVMKNEKFICNVENTILETFEPIPFADEGDEDA [chain 1 K282D] | 0.31

Variants of: B1
Test: GST pull-down, immunoblot quantification; S2 cells; only Flag-CNK2–549 and GST-HYP co-expressed; anti-Flag blot; parent: 1

Variant | ratio to parent
chain 1 AYINIAEWTPDQVTDWIKGLDESMKGYLYEFSKQEIGGRALLNIRPYELENLGMLRIGHQEIVLEAVENLRNFHYHLKNDNLQFMALHVATAAKNLHRELARNHAESTKIDTRILHDITRTIATLKPLVGSLERTPFRKQEMYREYCGNVLKCGLELATIAHRDRFALQPVPAIRQSAERLENLANFVIQDISDPMVLQPASLNLVTLKKRESELGFNIESSYNGIHRVTDIKYNSPAHNSGKIEDGDEIVQINYQTVVGWQHRTVLEHLREALPDVVLTVDKRPKHTKMFGQIYMQPYRLPSKKRNMAARWAAQMPSPRAAFLTLDTEQLATGGTGSAVPDPSKSLSSEKREVLTKANPVSSASDSDSSCSDIPTPTDPKLAAREIRLYYPKPRALLQRRNTICGCEYLSLKNSDLVVPSWHERKPGIGSPTNCDPGSPSIRDKSISFGYGLEMAARPTTCIGIAGDTSTDKARRMFHEARKLKQLTEDSQREFLVDRYKPGVSKVVRFDAKEDYVMKNEKFICNVENTILETFEPIPFADEGDEDA [chain 1 K282D] | 0.4

Variants of: B1
Test: GST pull-down, immunoblot quantification; S2 cells; GST-HYP + RRKM co-expressed; anti-Flag (CNK) blot; parent: 1
Remark: another data set of the same source

Variant | ratio to parent
chain 1 AYINIAEWTPDQVTDWIKGLDESMKGYLYEFSKQEIGGRALLNIRPYELENLGMLRIGHQEIVLEAVENLRNRHYHLKNDNLQFMALHVATAAKNLHRELARNHAESTKIDTRILHDITRTIATLKPLVGSLERTPFRKQEMYREYCGNVLKCGLELATIAHRDRFALQPVPAIRQSAERLENLANFVIQDISDPMVLQPASLNLVTLKKRESELGFNIESSYNGIHRVTDIKYNSPAHNSGKIEDGDRIVQINYQTVVGWQHRTVLEHLREALPDVVLTVKKRPKHTKMFGQIYMQPYRLPSKKRNMAARWAAQMPSPRAAFLTLDTEQLATGGTGSAVPDPSKSLSSEKREVLTKANPVSSASDSDSSCSDIPTPTDPKLAAREIRLYYPKPRALLQRRNTICGCEYLSLKNSDLVVPSWHERKPGIGSPTNCDPGSPSIRDKSISFGYGLEMAARPTTCIGIAGDTSTDKARRMFHEARKLKQLTEDSQREFLVDRYKPGVSKVVRFDAKEDYVMKNEKFICNVENTILETFEPIPFADEGDEDA [chain 1 F73R, chain 1 E249R] | 0.22
chain 1 AYINIAEWTPDQVTDWIKGLDESMKGYLYEFSKQEIGGRALLNIRPYELENLGMLRIGHQEIVLEAVENLRNFHYHLKNDNLQFMALHVATAAKNLHRELARNHAESTKIDTRILHDITRTIATLKPLVGSLERTPFRKQEMYREYCGNVLKCGLELATIAHRDRFALQPVPAIRQSAERLENLANFVIQDISDPMVLQPASLNLVTLKKRESELGFNIESSYNGIHRVTDIKYNSPAHNSGKIEDGDRIRQINYQTVVGWQHRTVLEHLREALPDVVLTVKKRPKHTKMFGQIYMQPYRLPSKKRNMAARWAAQMPSPRAAFLTLDTEQLATGGTGSAVPDPSKSLSSEKREVLTKANPVSSASDSDSSCSDIPTPTDPKLAAREIRLYYPKPRALLQRRNTICGCEYLSLKNSDLVVPSWHERKPGIGSPTNCDPGSPSIRDKSISFGYGLEMAARPTTCIGIAGDTSTDKARRMFHEARKLKQLTEDSQREFLVDRYKPGVSKVVRFDAKEDYVMKNEKFICNVENTILETFEPIPFADEGDEDA [chain 1 E249R, chain 1 V251R] | 0.08

Variants of: B1
Test: GST pull-down, immunoblot quantification; S2 cells; only Flag-CNK2–549 and GST-HYP co-expressed; anti-Flag blot; parent: 1
Remark: another data set of the same source

Variant | ratio to parent
chain 1 AYINIAEWTPDQVTDWIKGLDESMKGYLYEFSKQEIGGRALLNIRPYELENLGMLRIGHQEIVLEAVENLRNRHYHLKNDNLQFMALHVATAAKNLHRELARNHAESTKIDTRILHDITRTIATLKPLVGSLERTPFRKQEMYREYCGNVLKCGLELATIAHRDRFALQPVPAIRQSAERLENLANFVIQDISDPMVLQPASLNLVTLKKRESELGFNIESSYNGIHRVTDIKYNSPAHNSGKIEDGDRIVQINYQTVVGWQHRTVLEHLREALPDVVLTVKKRPKHTKMFGQIYMQPYRLPSKKRNMAARWAAQMPSPRAAFLTLDTEQLATGGTGSAVPDPSKSLSSEKREVLTKANPVSSASDSDSSCSDIPTPTDPKLAAREIRLYYPKPRALLQRRNTICGCEYLSLKNSDLVVPSWHERKPGIGSPTNCDPGSPSIRDKSISFGYGLEMAARPTTCIGIAGDTSTDKARRMFHEARKLKQLTEDSQREFLVDRYKPGVSKVVRFDAKEDYVMKNEKFICNVENTILETFEPIPFADEGDEDA [chain 1 F73R, chain 1 E249R] | 0.06
chain 1 AYINIAEWTPDQVTDWIKGLDESMKGYLYEFSKQEIGGRALLNIRPYELENLGMLRIGHQEIVLEAVENLRNFHYHLKNDNLQFMALHVATAAKNLHRELARNHAESTKIDTRILHDITRTIATLKPLVGSLERTPFRKQEMYREYCGNVLKCGLELATIAHRDRFALQPVPAIRQSAERLENLANFVIQDISDPMVLQPASLNLVTLKKRESELGFNIESSYNGIHRVTDIKYNSPAHNSGKIEDGDRIRQINYQTVVGWQHRTVLEHLREALPDVVLTVKKRPKHTKMFGQIYMQPYRLPSKKRNMAARWAAQMPSPRAAFLTLDTEQLATGGTGSAVPDPSKSLSSEKREVLTKANPVSSASDSDSSCSDIPTPTDPKLAAREIRLYYPKPRALLQRRNTICGCEYLSLKNSDLVVPSWHERKPGIGSPTNCDPGSPSIRDKSISFGYGLEMAARPTTCIGIAGDTSTDKARRMFHEARKLKQLTEDSQREFLVDRYKPGVSKVVRFDAKEDYVMKNEKFICNVENTILETFEPIPFADEGDEDA [chain 1 E249R, chain 1 V251R] | 0.05
